Test results from article PMC7525811 (Molecular Biology of the Cell, 2020).
No end group written: not given here. MBP = not defined here

target: full-length human CRM1(E571K) (human) (UniProt O14980); assay: differential photobleaching; conditions: not given
Sequence (O14980 whole entry E571K): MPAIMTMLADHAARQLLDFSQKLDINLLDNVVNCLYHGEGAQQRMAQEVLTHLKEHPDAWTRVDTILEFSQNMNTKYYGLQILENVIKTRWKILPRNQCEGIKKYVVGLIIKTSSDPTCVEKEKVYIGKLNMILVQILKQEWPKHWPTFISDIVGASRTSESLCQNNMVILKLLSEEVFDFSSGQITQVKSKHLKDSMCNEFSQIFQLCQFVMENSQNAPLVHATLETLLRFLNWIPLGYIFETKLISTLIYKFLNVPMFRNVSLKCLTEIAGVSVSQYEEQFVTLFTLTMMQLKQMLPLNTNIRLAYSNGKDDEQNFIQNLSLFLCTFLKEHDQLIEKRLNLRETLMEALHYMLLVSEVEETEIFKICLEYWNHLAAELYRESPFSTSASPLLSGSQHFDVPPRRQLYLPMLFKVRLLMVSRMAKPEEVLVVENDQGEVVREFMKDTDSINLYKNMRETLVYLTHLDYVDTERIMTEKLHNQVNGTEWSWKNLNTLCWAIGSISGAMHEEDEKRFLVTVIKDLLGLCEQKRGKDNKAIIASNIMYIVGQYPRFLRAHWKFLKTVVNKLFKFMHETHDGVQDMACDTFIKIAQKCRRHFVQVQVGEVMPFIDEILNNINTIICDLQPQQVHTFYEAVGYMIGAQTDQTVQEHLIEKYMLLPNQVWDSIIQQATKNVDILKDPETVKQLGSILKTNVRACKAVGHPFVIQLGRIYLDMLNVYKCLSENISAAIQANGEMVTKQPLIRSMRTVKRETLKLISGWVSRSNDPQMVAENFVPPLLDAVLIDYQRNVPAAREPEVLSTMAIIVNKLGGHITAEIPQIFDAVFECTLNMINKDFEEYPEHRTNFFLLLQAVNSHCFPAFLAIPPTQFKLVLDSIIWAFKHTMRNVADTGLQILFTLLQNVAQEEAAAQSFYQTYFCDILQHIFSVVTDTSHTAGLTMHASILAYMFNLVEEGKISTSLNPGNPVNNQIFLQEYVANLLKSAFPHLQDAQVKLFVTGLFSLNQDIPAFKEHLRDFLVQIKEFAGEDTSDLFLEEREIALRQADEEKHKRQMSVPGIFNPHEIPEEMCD

MBP-FMRP1b^NES (peptide) gave a Kd of 9 µM.

target: full-length human CRM1 (WT) (Homo sapiens, UniProt O14980); assay: not given; format: binding; conditions: from photobleaching Kds
Sequence (O14980 whole entry, other chains not shown): as the sequence (O14980 whole entry E571K) above, with K571E counted along it

In the case of “Mek1^NES(E41A) ({MBP}-TNLEALQKKLEELALDEQ; reading uncertain)”, the “tighter binding to WT CRM1 than the WT Mek1^NES” value is reported as 14 fold.

target: CRM1(E571K) (Homo sapiens, UniProt O14980, E571K); assay: not given; format: binding; conditions: from photobleaching Kds
Sequence (O14980 whole entry E571K, other chains not shown): as the sequence (O14980 whole entry E571K) above

With RELDELMASLSDFKFMA [Paxillin^NES] the “weaker binding to CRM1(E571K) than to WT CRM1” value was 4–10 fold.
With REELWKKLEELKLKK [PP2A B56α^NES] the “weaker binding to CRM1(E571K) than to WT CRM1” value was 4–10 fold.

With TNLEALQKKLEELELDEQ [Mek1^NES] the “tighter (stronger) binding to CRM1(E571K) than to WT CRM1” value was 14 fold.

same assay, conditions: ratio of Kds from differential photobleaching assays

In order of rising “Kd,E571K/Kd,WT” value:
1. TNLEALQKKLEELELDEQ [Mek1^NES]  0.071
2. NFEILMKLKESLELMELVP [P73^NES]  0.75
3. RSFEMTEFNQALEEIKG [hRio2^NES]  0.79
4. SSLQELVQQFEALPGDLV [X11L2^NES]  0.87
5. SVPEVEALLARLRAL [mDia2^NES]  0.88
6. EQMVKELQEIRLEPQ [Iκβα^NES]  0.95
7. MEELSQALASSFSVSQDLNS [Snupn1^NES]  1.8
8. Paxillin^NES(K277A) ({MBP}-RELDELMASLSDFAFMA; reading uncertain)  2.1
9. LQLPPLERLTLDC [HIV Rev^NES]  2.3
10. YERVVSPGIDLSGLTLQ [Smad4^NES]  2.8
11. LKEVDQLRALERLQID [FMRP1b^NES]  3.0
12. RTFDMHSLESSIDIMR [Cpeb4^NES]  3.2
13. SLVLLPFDDLKISG [Iκβε^NES]  3.3
14. RELDELMASLSDFKFMA [Paxillin^NES]  4.6
15. REELWKKLEELKLKK [PP2A B56α^NES]  8.6
16. SVEEVEAGLKGLKVDQQVK [eIF4E-transporter (4E-T^NES)]  10

tested on: HEK 293 cells; assay: Immunostaining and confocal microscopy of endogenous RPS2 with and without LMB; format: cell-based, human; conditions: anti-RPS2 immunostaining, presence vs absence of LMB

With `CCC(=C/[C@H](C)C/C=C/C(C)=C/[C@@H](C)C(=O)[C@@H](C)[C@H](O)[C@@H](C)C/C(C)=C/C(=O)O)/C=C/[C@@H]1OC(=O)C=C[C@@H]1C` [leptomycin B] the “subcellular localization of endogenous RPS2 upon CRM1 inhibition” value was “not affected”.

target: T1, full-length human CRM1 (wild type) (human, UniProt O14980 1-1071); assay: differential photobleaching; conditions: not given
T1 sequence (O14980 whole entry): as the sequence (O14980 whole entry E571K) above, with K571E counted along it

TNLEALQKKLEELELDEQ [MBP-Mek1^NES]: binds.
YERVVSPGIDLSGLTLQ [MBP-Smad4^NES]: binds.

target: T1, full-length human CRM1 (wild type); assay: differential photobleaching; conditions: not given; remark: another data set of the same source

In order of falling Kd:
1. {MBP}-EQMVKELQEIRLEPQ (reading uncertain) [MBP-Iκβα^NES]  22 µM
2. REELWKKLEELKLKK [MBP-PP2A B56α^NES]  4.4 µM
3. {MBP}-SLVLLPFDDLKISG (reading uncertain) [MBP-Iκβε^NES]  3.6 µM
4. SVEEVEAGLKGLKVDQQVK [MBP-eIF4E-transporter NES (4E-T^NES)]  1.4 µM

target: T2, full-length human CRM1(E571K) (human, UniProt O14980 1-1071, E571K); assay: differential photobleaching; conditions: not given
T2 sequence (O14980 whole entry E571K): as the sequence (O14980 whole entry E571K) above

In order of rising Kd:
1. TNLEALQKKLEELELDEQ [MBP-Mek1^NES]  0.005 µM
2. SSLQELVQQFEALPGDLV [MBP-X11L2^NES]  1.3 µM
3. SVPEVEALLARLRAL [MBP-mDia2^NES]  1.5 µM
4. NFEILMKLKESLELMELVP [MBP-P73^NES]  1.5 µM
5. RSFEMTEFNQALEEIKG [MBP-hRio2^NES]  1.9 µM
6. RTFDMHSLESSIDIMR [MBP-Cpeb4^NES]  1.9 µM
7. RELDELMASLSDFKFMA [MBP-Paxillin^NES]  3.1 µM
8. LQLPPLERLTLDC [MBP-HIV Rev^NES]  4.1 µM
9. {MBP}-SLVLLPFDDLKISG (reading uncertain) [MBP-Iκβε^NES]  12 µM
10. YERVVSPGIDLSGLTLQ [MBP-Smad4^NES]  13 µM
11. SVEEVEAGLKGLKVDQQVK [MBP-eIF4E-transporter NES (4E-T^NES)]  14 µM
12. PLPVLGLGGLRISS [MBP-Dusp6^NES]  14 µM
13. {MBP}-EQMVKELQEIRLEPQ (reading uncertain) [MBP-Iκβα^NES]  21 µM
14. MEELSQALASSFSVSQDLNS [MBP-Snupn1^NES]  21 µM
15. REELWKKLEELKLKK [MBP-PP2A B56α^NES]  38 µM

target: T1, full-length human CRM1 (wild type); assay: not given; conditions: not given

With TNLEALQKKLEELALDEQ [MBP-Mek1^NES(E41A)] the Kd was 0.005 µM.

target: T2, full-length human CRM1(E571K); assay: not given; conditions: not given

NSNELALKLAGLDIDE [MBP-PKI^NESDE] was tested, and the “fold tighter than to WT CRM1” value was 3 fold.

TNLEALQKKLEELALDEQ [MBP-Mek1^NES(E41A)] gave a Kd of 0.006 µM.

target: full-length human CRM1(E571K) (human) (UniProt O14980); assay: fluorescence polarisation; conditions: not given

“MBP-RPS2^NES (putative NES of 40S ribosomal protein S2) (peptide)” was tested, and the fold weaker than to WT CRM1 was 16 fold.
